Source: article PMC7870846, “Incorporation of sensing modalities into de novo designed fluorescence-activating proteins” (Nature Communications, 2021)

B1: EF1p2_mFAP2b (K101A): K101A lysine-to-alanine substitution in EF1p2_mFAP2b (protein)
chain: SRAAQLLPGTWQVTMTNEDGQTSQGQWHFQPRSPYTMDIVAQGTISDGRPIVGYGKATVKTPDTLDIDITYPSLGNIKAQGQITMDSPTQFKWDAHYKGDADGDGYISAAEAAAQGLTGTLQRQE
B2: EF1p_mFAP2b: positively allosteric Ca2+-responsive mFAP, one EF-hand motif (protein)
chain: SRAAQLLPGTWQVTMTNEDGQTSQGQWHFQPRSPYTMDIVAQGTISDGRPIVGYGKATVKTPDTLDIDITYPSLGNIKAQGQITMDSPTQFKWDAHYKGDKDGDGYISAAEAAAQILTGTLQRQE

Key:
[1] = Ca2+-responsive mFAP Ca2+ titrations; assay type: binding; details: in the presence of excess DFHBI
Method: In measuring Ca^2+ affinity of mFAPs on a Synergy Neo2 hybrid multi-mode reader (Fig. 4d, e, f and Supplementary Figs. 10c, f, i, 11c, f, i, 13c, f, i, 16b), large-scale purified proteins[49] were aliquoted in technical triplicate to a final concentration of 500 nM with 5.00 μM DFHBI in eleven serial dilutions ( 10 dilution factor) of CaCl2 (Sigma Aldrich) starting from either 900 mM or 90.0 mM CaCl2 (diluted using high-salt Tev cleavage buffer) including a twelfth condition without CaCl2. Final volumes were 200 μL in flat bottom, black polystyrene, non-binding surface 96-well microplates (Corning 3650). Fluorescence endpoints were measured using excitation wavelength λex = 484 nm and emission wavelength λem = 508 nm. Background fluorescence endpoints of wells with identical chromophore and CaCl2 concentrations lacking protein (substituted for equivalent volumes of high-salt Tev cleavage buffer) were measured in technical triplicate, averaged per condition, and subtracted from protein measurement averages of the same conditions.
For Ca^2+ titrations of EF4n_mFAP2a and EF4n_mFAP2b (Supplementary Fig. 13c), a small amount of Chelex 100 sodium form (Sigma Aldrich) was added to purified protein (produced by large-scale protein purification and SEC purification[49]) and nutated at 4 °C overnight. EF4n_mFAP2a was aliquoted in technical triplicate to a final concentration of 8.00 μM with 80.0 μM DFHBI and EF4n_mFAP2b was aliquoted in technical triplicate to a final concentration of 6.25 μM with 43.4 μM DFHBI, in eleven serial dilutions ( 10 dilution factor) of CaCl2 starting from 9.00 mM or 4.00 mM CaCl2 (diluted using high-salt Tev cleavage buffer pre-treated with Chelex 100) including a twelfth condition without CaCl2. Final volumes were 25.0 μL in flat bottom, black polystyrene, non-binding surface 96-well half-area microplates (Corning 3686) or 200 μL in flat bottom, black polystyrene, non-binding surface 96-well microplates (Corning 3650). Fluorescence endpoints were measured for EF4n_mFAP2a using excitation wavelength λex = 478 nm and emission wavelength λem = 520 nm, and for EF4n_mFAP2b using excitation wavelength λex = 484 nm and emission wavelength λem = 508 nm. Background fluorescence endpoints of wells with identical chromophore and CaCl2 concentrations lacking protein (substituted for equivalent volumes of high-salt Tev cleavage buffer) were measured in technical triplicate, averaged per condition, and subtracted from protein measurement averages of the same conditions. For non-linear least squares fitting to obtain Kd values, means were fit to a single-binding site isotherm function where Ca^2+-binding sites were modeled independently with a Hill coefficient of 1.

[2] = Ca2+-responsive mFAP DFHBI titrations; assay type: binding; details: in the presence of excess Ca2+ (Kd+)
Method: Final volumes were 25.0 μL in flat bottom, black polystyrene, non-binding surface 96-well half-area microplates (Corning 3686) or 200 μL in flat bottom, black polystyrene, non-binding surface 96-well microplates (Corning 3650). Fluorescence endpoints were measured using excitation wavelength λex = 488 nm and emission wavelength λem = 510 nm. Background fluorescence endpoints of wells with identical chromophore concentrations lacking protein (substituted for equivalent volumes of high-salt Tev cleavage buffer) were measured and subtracted from protein measurements prior to normalization.
For DFHBI titrations of EF4n_mFAP2a and EF4n_mFAP2b (Supplementary Fig. 13a, b), a small amount of Chelex 100 sodium form (Sigma Aldrich) was added to purified protein (produced by large-scale protein purification and SEC purification[49]) and nutated at 4 °C overnight. […] Fluorescence endpoints were measured using excitation wavelength λex = 488 nm and emission wavelength λem = 510 nm for EF4n_mFAP2b, and excitation wavelength λex = 478 nm and emission wavelength λem = 520 nm for EF4n_mFAP2a. Background fluorescence endpoints of wells with identical chromophore concentrations lacking protein (substituted for equivalent volumes of Chelex 100 pre-treated high-salt Tev cleavage buffer) were measured and subtracted from protein measurements prior to normalization.

HEK293 cells = assay: HEK293 cell surface-displayed Ca2+ titrations; assay type: cell-based; details: Ca2+ from 0 to 10 mM; 7.00 µM DFHBI; extracellular display
Method: Plasmid DNAs (Supplementary Data 15 and Supplementary Data 17) were purified in ddH2O for transfections. pGP-CMV-GCaMP6f was a gift from Douglas Kim & GENIE Project (Addgene plasmid #40755; [http://n2t.net/addgene:40755]; RRID: Addgene_40755). Wild-type HEK293 cells (ATCC CRL-1573) were cultured on 24-well plates in DMEM media (4.5 g L^−1 D-glucose, L-glutamine; ThermoFisher #11965-092) supplemented with 10% FBS and 1% Penicillin/Streptomycin in a 5% CO2 atmosphere at 37 °C. Cells were seeded into 24-well plates (ThermoFisher #FB012929) at 100,000 cells well^−1. Twenty-four hours after seeding, cell media was aspirated and replaced with 200 μL of DMEM media. […]
Data analysis: Regions of interest (ROIs) surrounding single cells from three technical replicates were hand-drawn in ImageJ software. For each cellular ROI in each frame the average fluorescence was calculated in ImageJ. In order to perform background subtraction, cellular ROIs were then moved proximal to the original cell to an ROI where there was no fluorescence. Each cellular ROIs average fluorescence had the average background intensity subtracted for each frame. […]

| Molecule | reduction of Ca2+ affinity compared with EF1p2_mFAP2b [1] | reduction of DFHBI affinity compared with EF1p2_mFAP2b [2] | fluorescence fold-change (ΔF/F0) (HEK293 cells) |
| --- | --- | --- | --- |
| B1 | ~ 29 fold | ~ 21 fold | – |
| B2 | – | – | ~ 0.5 |
